The text below walks through data of patent US20250339569A1 (3B PHARMACEUTICALS, published 2025).

The labels stand for the following.
B1: 3BP-3906 (peptide)
peptide: {DOTA}-YCE[dP]DWLTWSC-NH2
modifications: linker 2-11 via mXylylene; also: ['indium complexed by DOTA']
B2: 3BP-3874 (peptide)
peptide: Ac-VFCE[dP]DWLTWE([Apr-DOTA])C-NH2
modifications: linker 3-12 via mXylylene; reading uncertain
B3: 3BP-4104 (peptide)
peptide: {DOTA-APAc}-VYCQ[dP]DWLTWSC-NH2
modifications: linker 3-12 via mXylylene; reading uncertain
B4: 3BP-3890 (peptide)
peptide: Ac-VYCE[dP]KWLEWSC-NH2
modifications: linker 3-12 via mXylylene; lactam 6-9
SMILES: CC(=O)N[C@H](C(=O)N[C@@H](Cc1ccc(O)cc1)C(=O)N[C@H]1CSCc2cccc(c2)CSC[C@@H](C(N)=O)NC(=O)[C@H](CO)NC(=O)[C@H](Cc2c[nH]c3ccccc23)NC(=O)[C@@H]2CCC(=O)NCCCC[C@H](NC(=O)[C@H]3CCCN3C(=O)[C@H](CCC(=O)O)NC1=O)C(=O)N[C@@H](Cc1c[nH]c3ccccc13)C(=O)N[C@@H](CC(C)C)C(=O)N2)C(C)C
B5: 3BP-4136 (peptide)
peptide: {DOTA-APAc}-VYCE[dP]DYLTWSC-NH2
modifications: linker 3-12 via mXylylene; not fully specified; reading uncertain
B6: 3BP-4121 (peptide)
peptide: {DOTA-APAc}-VYCE[dP]DWLE(AGLU′)WSC-NH2
modifications: linker 3-12 via mXylylene; reading uncertain
B7: 3BP-4130 (peptide)
peptide: {DOTA-APAc}-VYCE[dP]DC(Bn)LTWSC-NH2
modifications: linker 3-12 via mXylylene; not fully specified; reading uncertain
B8: 3BP-4103 (peptide)
peptide: {DOTA-APAc}-VYCE[dP]NWLTWSC-NH2
modifications: linker 3-12 via mXylylene; reading uncertain
B9: 3BP-4112 (peptide)
peptide: {DOTA-APAc}-VE(AGLU′)CE[dP]DWLTWSC-NH2
modifications: linker 3-12 via mXylylene; reading uncertain
B10: 3BP-4105 (peptide)
peptide: {DOTA-APAc}-VSCE[dP]DWLTWSC-NH2
modifications: linker 3-12 via mXylylene; reading uncertain
B11: 3BP-4127 (peptide)
peptide: {DOTA-APAc}-VYCE[dP]Y(Bn)WLTWSC-NH2
modifications: linker 3-12 via mXylylene; not fully specified; reading uncertain
B12: 3BP-4128 (peptide)
peptide: {DOTA-APAc}-VYCE[dP]C(Bn)WLTWSC-NH2
modifications: linker 3-12 via mXylylene; not fully specified; reading uncertain
B13: 3BP-4129 (peptide)
peptide: {DOTA-APAc}-VYCE[dP]C(2Quyl)WLTWSC-NH2
modifications: linker 3-12 via mXylylene; not fully specified; reading uncertain
B14: 3BP-3957 (peptide)
peptide: Ac-VYCE[dP]KWL[dE]WSC-NH2
modifications: linker 3-12 via mXylylene; lactam 6-9
SMILES: CC(=O)N[C@H](C(=O)N[C@@H](Cc1ccc(O)cc1)C(=O)N[C@H]1CSCc2cccc(c2)CSC[C@@H](C(N)=O)NC(=O)[C@H](CO)NC(=O)[C@H](Cc2c[nH]c3ccccc23)NC(=O)[C@H]2CCC(=O)NCCCC[C@H](NC(=O)[C@H]3CCCN3C(=O)[C@H](CCC(=O)O)NC1=O)C(=O)N[C@@H](Cc1c[nH]c3ccccc13)C(=O)N[C@@H](CC(C)C)C(=O)N2)C(C)C
B15: 3BP-4108 (peptide)
peptide: {DOTA-APAc}-VYC[NMeS][dP]DWLTWSC-NH2
modifications: linker 3-12 via mXylylene; reading uncertain
B16: 3BP-4119 (peptide)
peptide: {DOTA-APAc}-VYCE[dE](AGLU′)DWLTWSC-NH2
modifications: linker 3-12 via mXylylene; reading uncertain
B17: 3BP-4215 (peptide)
peptide: {DOTA-APAc″}-VYCE[dP]E(NHMe2Nph)WLTWSC-NH2
modifications: linker 3-12 via mXylylene; reading uncertain
B18: 3BP-4122 (peptide)
peptide: {DOTA-APAc}-VYCE[dP]DWLTWEC-NH2
modifications: linker 3-12 via mXylylene; not fully specified (residue 11); reading uncertain
B19: 3BP-3905 (peptide)
peptide: {DOTA-APAc}-VYCE[dP]DWLTWSC-NH2
modifications: linker 3-12 via mXylylene; reading uncertain; also: ['indium complexed by DOTA']
B20: 3BP-3311 (peptide)
peptide: Ac-VYCE[Sar]D[Bta]LTWQC-NH2
modifications: linker 3-12 via mXylylene
SMILES: CC(=O)N[C@H](C(=O)N[C@@H](Cc1ccc(O)cc1)C(=O)N[C@H]1CSCc2cccc(c2)CSC[C@@H](C(N)=O)NC(=O)[C@H](CCC(N)=O)NC(=O)[C@H](Cc2c[nH]c3ccccc23)NC(=O)[C@H]([C@@H](C)O)NC(=O)[C@H](CC(C)C)NC(=O)[C@H](Cc2csc3ccccc23)NC(=O)[C@H](CC(=O)O)NC(=O)CN(C)C(=O)[C@H](CCC(=O)O)NC1=O)C(C)C
notes: also called Ac-Val-Tyr-[Cys(3MeBn)-Glu-Nmg-Asp-Bta-Leu-Thr-Trp-Gln-Cys]-NH2
B21: 3BP-3314 (peptide)
peptide: Ac-VYCE[Sar]D[1Nal]LTWQC-NH2
modifications: linker 3-12 via mXylylene
SMILES: CC(=O)N[C@H](C(=O)N[C@@H](Cc1ccc(O)cc1)C(=O)N[C@H]1CSCc2cccc(c2)CSC[C@@H](C(N)=O)NC(=O)[C@H](CCC(N)=O)NC(=O)[C@H](Cc2c[nH]c3ccccc23)NC(=O)[C@H]([C@@H](C)O)NC(=O)[C@H](CC(C)C)NC(=O)[C@H](Cc2cccc3ccccc23)NC(=O)[C@H](CC(=O)O)NC(=O)CN(C)C(=O)[C@H](CCC(=O)O)NC1=O)C(C)C
notes: also called Ac-Val-Tyr-[Cys(3MeBn)-Glu-Nmg-Asp-1Ni-Leu-Thr-Trp-Gln-Cys]-NH2

Starred links: 1 amine or outer side, 2 acyl side, 3 side chain; linkers in the order of their positions; H or OH if unused. Positions of bridges follow the written chain, without caps; N, C: chain ends. Non-standard residues stand in square brackets, D forms with d. Groups on a side chain read outwards from the residue. Primed or numbered codes have the meaning given here. *: point of attachment. APAc″ = 2-(4-(amino)piperidin-1-yl)acetic acid, NC1CCN(CC(=O)*)CC1; DOTA = O=C(O)CN1CCN(CC(=O)O)CCN(CC(=O)*)CCN(CC(=O)O)CC1; 1Nal = N[C@@H](Cc1cccc2ccccc12)C(=O)O; mXylylene = c1cc(C[*:1])cc(C[*:2])c1; Bta = N[C@@H](Cc1csc2ccccc12)C(=O)O; NHMe2Nph = not defined here; NMeS = CN[C@@H](CO)C(=O)O; 2Quyl = not defined here; AGLU′ = not defined here; APAc = not defined here; Apr = not defined here; Bn = c1ccc(C*)cc1; Sar = CNCC(=O)O

The first assay addresses human carbonic anhydrase 9 (CAIX) (human, UniProt Q16790 38-459). Description: FACS competition on HT-29 cells, competitor tracer 3BP-2776; category A = pIC50 >8.0. The procedure:
CAIX-expressing human HT-29 colorectal cancer cells (DSMZ, RRID: CVCL_0320) were cultured in McCoys's 5A modified medium (Biochrom, #F1015) including 10% fetal calf serum (FCS), 2 mM L-glutamine, 100 U/ml penicillin and 100 μg/mL streptomycin. Cells were detached with Accutase (Biolegend, #423201) and washed in FACS buffer (PBS including 1% FCS). Cells were diluted in FACS buffer to a final concentration of 500.000 cells per ml. 200 μL of the cell suspension were transferred to a u-shaped non-binding 96-well plate (Greiner) and cells were washed in ice-cold FACS buffer.
When biotinylated compounds were used an additional incubation step with 1 μg/mL APC-Streptavidin (Miltenyi; #130-106-791) in 50 μL FACS buffer for 30 minutes on ice was performed.
Cells were washed twice with ice-cold FACS buffer and analyzed in an Attune NxT flow cytometer (Thermo Fisher). Median fluorescence intensities (MFI) of the APC/Cy5-channel were calculated by Attune NxT software.
Take B1: the pIC50 was greater than 8 pic50.

Regarding B2, the pIC50 was greater than 8 pic50.

As to B3, the pIC50 is greater than 8 pic50.

Regarding B4, the pIC50 was greater than 8 pic50.

B5 had a pIC50 greater than 8 pic50.

As to B6, the pIC50 is greater than 8 pic50.

With B7, the pIC50 was greater than 8 pic50.

In turn, B8 returned a pIC50 greater than 8 pic50.

On to B9, for which the pIC50 is greater than 8 pic50.

Turning to B10, the pIC50 was greater than 8 pic50.

The molecule B11 registered a pIC50 greater than 8 pic50.

Molecule B12 returned a pIC50 greater than 8 pic50.

For the molecule B13, the pIC50 was greater than 8 pic50.

For B14, the pIC50 is greater than 8 pic50.

For the molecule B15, the pIC50 was greater than 8 pic50.

In turn, B16 showed a pIC50 greater than 8 pic50.

As for B17, the pIC50 was greater than 8 pic50.

As for B18, the pIC50 is greater than 8 pic50.

The molecule B19 came in with a pIC50 greater than 8 pic50.

The target is the same in the next assay. The experiment in a line: FACS competition on HT-29 cells against tracer 3BP-2776; pIC50 category A = pIC50 >8.0.
With B20, the pIC50 was greater than 8 pic50.

As for B21, the pIC50 is greater than 8 pic50.
